Experimental data published in paper doi:10.1101/2023.12.08.570755.

Target: activation domain of SRC-3 (ACTR), labelled with AlexaFluor 647, with a ssDNA handle
Assay: FRET or BRET

most likely lifetime of the intermediate state (transient encounter complex), τi: 96 μs
Substance: nuclear-coactivator binding domain of the CBP/p300 transcription factor (NCBD), labelled with LD750 (domain or fragment)
